Laboratory results reported in patent publication CN111704670A (MABWELL SHANGHAI BIOSCIENCE CO LTD; JIANGSU MABWELL NEW …, dated 2020).
Values belong to the binder of their own block, whether it stands above or below them.

Target: T1, RANKL-兔Fc (rabbit, UniProt O14788 140-317 (human entry), limits assumed)
T1 sequence (looked up): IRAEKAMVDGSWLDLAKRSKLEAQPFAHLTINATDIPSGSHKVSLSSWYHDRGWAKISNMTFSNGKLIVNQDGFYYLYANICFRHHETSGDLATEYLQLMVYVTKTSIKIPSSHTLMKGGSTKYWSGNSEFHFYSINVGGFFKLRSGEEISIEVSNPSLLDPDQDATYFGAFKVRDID
Assay: cell-based or functional assay

异构体生物活性 IC50: 3 ng/mL
B1: 重组人源抗RANKL抗体IgG2型二硫键异构体IgG2-B型 (antibody, V domains shown)
VH: EVQLLESGGGLVQPGGSLRLSCAASGFTFSSYAMSWVRQAPGKGLEWVSGITGSGGSTYYADSVKGRFTISRDNSKNTLYLQMNSLRAEDTAVYYCAKDPGTTVIMSWFDPWGQGTLVTVSS
VL: EIVLTQSPGTLSLSPGERATLSCRASQSVRGRYLAWYQQKPGQAPRLLIYGASSRATGIPDRFSGSGTDFTLTISRLEPEDFAVFYCQQYGSSPRTFGQGTKVEIKR

异构体生物活性 IC50: 2.89 ng/mL
B2: 重组人源抗RANKL抗体IgG2型二硫键异构体IgG2-A型 (antibody, V domains shown)
VH: B1 VH
VL: B1 VL

生物学活性量效曲线 IC50 (RAW264.7 TRAP/pNPP assay); 原液 lot 20131201: 1.07 ng/ml
生物学活性量效曲线 IC50 (RAW264.7 TRAP/pNPP assay); 原液 lot 20140201: 1.63 ng/ml
生物学活性量效曲线 IC50 (RAW264.7 TRAP/pNPP assay); 工作参考品 lot 20140301, plate with Denosumab: 1.11 ng/ml
生物学活性量效曲线 IC50 (RAW264.7 TRAP/pNPP assay); 工作参考品 lot 20140301, plate with lot 20131201: 1.33 ng/ml
生物学活性量效曲线 IC50 (RAW264.7 TRAP/pNPP assay); 工作参考品 lot 20140301, plate with lot 20140201: 1.34 ng/ml
B3: 重组人源抗RANKL单克隆抗体IgG2型 (TK006) (antibody, V domains shown)
VH: B1 VH
VL: B1 VL
